Assay results reported in the supplement of paper PMC5998384.

Columns and labels:
[1] = tested on: HeLa Kyoto; test: thermal stability score vs G1/S (z-score of summed log2 fold changes over temperatures); higher = more thermally stable than in G1/S
[2] = tested on: HeLa Kyoto; test: melting temperature (median over replicates), in situ; higher = more thermally stable
[3] = tested on: HeLa Kyoto; test: solubility change mitosis vs G1/S (difference of NP-40 vs SDS log2 ratios) (log2 ratio difference); higher = more soluble in mitosis
[4] = tested on: HeLa Kyoto; test: solubility in G1/S (NP-40 vs SDS abundance) (log2 ratio); higher = more soluble; conditions: cell cycle stage: G1/S
[5] = cell cycle stage: early G1 (4.5 h after nocodazole release)
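Wherever melting temperature (median over replicates), in situ is given: HeLa Kyoto cells synchronized by double thymidine or nocodazole block, proteins quantified by TMT10plex mass spectrometry, three independent biological replicates.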
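Wherever solubility change mitosis vs G1/S (difference of NP-40 vs SDS log2 ratios) is given: synchronized HeLa Kyoto cells (double thymidine block for G1/S, nocodazole release for mitosis), protein amounts in NP-40 versus SDS lysates quantified by mass spectrometry, three biological replicates.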
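Wherever solubility in G1/S (NP-40 vs SDS abundance) is given: HeLa Kyoto cells arrested at G1/S by double thymidine block, proteins quantified by TMT10plex mass spectrometry in mild NP-40 versus SDS extracts, three biological replicates.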
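Wherever thermal stability score vs G1/S (z-score of summed log2 fold changes over temperatures) is given: synchronized HeLa Kyoto cells, proteins quantified by TMT10plex mass spectrometry, three biological replicates, mitosis taken 0.5 h after nocodazole release, G1/S directly after double thymidine block.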

## MPVRGDRGFPPRRELSGWLRAPGMEELIWEQYTVTLQKDSKRGFGIAVSGGRDNPHFENGETSIVISDVLPGGPADGLLQENDRVVMVNGTPMEDVLHSFAVQQLRKSGKVAAIVVKRPRKVQVAALQASPPLDQDDRAFEVMDEFDGRSFRSGYSERSRLNSHGGRSRSWEDSPERGRPHERARSRERDLSRDRSRGRSLERGLDQDHARTRDRSRGRSLERGLDHDFGPSRDRDRDRSRGRSIDQDYERAYHRAYDPDYERAYSPEYRRGARHDARSRGPRSRSREHPHSRSPSPEPRGRPGPIGVLLMKSRANEEYGLRLGSQIFVKEMTRTGLATKDGNLHEGDIILKINGTVTENMSLTDARKLIEKSRGKLQLVVLRDSQQTLINIPSLNDSDSEIEDISEIESNRSFSPEERRHQYSDYDYHSSSEKLKERPSSREDTPSRLSRMGATPTPFKSTGDIAGTVVPETNKEPRYQEDPPAPQPKAAPRTFLRPSPEDEAIYGPNTKMVRFKKGDSVGLRLAGGNDVGIFVAGIQEGTSAEQEGLQEGDQILKVNTQDFRGLVREDAVLYLLEIPKGEMVTILAQSRADVYRDILACGRGDSFFIRSHFECEKETPQSLAFTRGEVFRVVDTLYDGKLGNWLAVRIGNELEKGLIPNKSRAEQMASVQNAQRDNAGDRADFWRMRGQRSGVKKNLRKSREDLTAVVSVSTKFPAYERVLLREAGFKRPVVLFGPIADIAMEKLANELPDWFQTAKTEPKDAGSEKSTGVVRLNTVRQIIEQDKHALLDVTPKAVDLLNYTQWFPIVIFFNPDSRQGVKTMRQRLNPTSNKSSRKLFDQANKLKKTCAHLFTATINLNSANDSWFGSLKDTIQHQQGEAVWVSEGKMEGMDDDPEDRMSYLTAMGADYLSCDSRLISDFEDTDGEGGAYTDNELDEPAEEPLVSSITRSSEPVQHEESIRKPSPEPRAQMRRAASSDQLRDNSPPPAFKPEPPKAKTQNKEESYDFSKSYEYKSNPSAVAGNETPGASTKGYPPPVAAKPTFGRSILKPSTPIPPQEGEEVGESSEEQDNAPKSVLGKVKIFEKMDHKARLQRMQELQEAQNARIEIAQKHPDIYAVPIKTHKPDPGTPQHTSSRPPEPQKAPSRPYQDTRGSYGSDAEEEEYRQQLSEHSKRGYYGQSARYRDTEL [TJP2]
[1]; [5]
  thermal stability score: 1
[1]; cell cycle stage: mitosis
  thermal stability score: 2.91
[2]; cell cycle stage: G1/S
  melting temperature: 48.1 °C
[2]; cell cycle stage: mitosis
  melting temperature: 49.2 °C
[3]
  solubility change mitosis (log2): 0.000921
[4]
  solubility in G1/S (log2): -0.246

## MPYVDRQNRICGFLDIEENENSGKFLRRYFILDTREDSFVWYMDNPQNLPSGSSRVGAIKLTYISKVSDATKLRPKAEFCFVMNAGMRKYFLQANDQQDLVEWVNVLNKAIKITVPKQSDSQPNSDNLSRHGECGKKQVSYRTDIVGGVPIITPTQKEEVNECGESIDRNNLKRSQSHLPYFTPKPPQDSAVIKAGYCVKQGAVMKNWKRRYFQLDENTIGYFKSELEKEPLRVIPLKEVHKVQECKQSDIMMRDNLFEIVTTSRTFYVQADSPEEMHSWIKAVSGAIVAQRGPGRSASSEHPPGPSESKHAFRPTNAATATSHSTASRSNSLVSTFTMEKRGFYESLAKVKPGNFKVQTVSPREPASKVTEQALLRPQSKNGPQEKDCDLVDLDDASLPVSDV [PLEKHA1]
[1]; [5]
  thermal stability score: 0.0968
[1]; cell cycle stage: mitosis
  thermal stability score: 0.182
[2]; cell cycle stage: G1/S
  melting temperature: 49.8 °C
[2]; cell cycle stage: mitosis
  melting temperature: 49 °C
[3]
  solubility change mitosis (log2): -0.0272
[4]
  solubility in G1/S (log2): 0.0285

## MQDPNADTEWNDILRKKGILPPKESLKELEEEAEEEQRILQQSVVKTYEDMTLEELEDHEDEFNEEDERAIEMYRRRRLAEWKATKLKNKFGEVLEISGKDYVQEVTKAGEGLWVILHLYKQGIPLCALINQHLSGLARKFPDVKFIKAISTTCIPNYPDRNLPTIFVYLEGDIKAQFIGPLVFGGMNLTRDELEWKLSESGAIMTDLEENPKKPIEDVLLSSVRRSVLMKRDSDSEGD [PDCL3]
[1]; [5]
  thermal stability score: -0.23
[1]; cell cycle stage: mitosis
  thermal stability score: -0.106
[2]; cell cycle stage: G1/S
  melting temperature: 54.2 °C
[2]; cell cycle stage: mitosis
  melting temperature: 54.2 °C
[3]
  solubility change mitosis (log2): -0.135
[4]
  solubility in G1/S (log2): 0.617

## MQDTGSVVPLHWFGFGYAALVASGGIIGYVKAGSVPSLAAGLLFGSLAGLGAYQLSQDPRNVWVFLATSGTLAGIMGMRFYHSGKFMPAGLIAGASLLMVAKVGVSMFNRPH [TMEM14C]
[1]; [5]
  thermal stability score: -3.8e-18
[1]; cell cycle stage: mitosis
  thermal stability score: -4.49e-20
[2]; cell cycle stage: mitosis
  melting temperature: 54.3 °C
[3]
  solubility change mitosis (log2): 0.206
[4]
  solubility in G1/S (log2): 0.356

## MQGARAPRDQGRSPGRMSALGRSSVILLTYVLAATELTCLFMQFSIVPYLSRKLGLDSIAFGYLQTTFGVLQLLGGPVFGRFADQRGARAALTLSFLAALALYLLLAAASSPALPGVYLLFASRLPGALMHTLPAAQMVITDLSAPEERPAALGRLGLCFGVGVILGSLLGGTLVSAYGIQCPAILAALATLLGAVLSFTCIPASTKGAKTDAQAPLPGGPRASVFDLKAIASLLRLPDVPRIFLVKVASNCPTGLFMVMFSIISMDFFQLEAAQAGYLMSFFGLLQMVTQGLVIGQLSSHFSEEVLLRASVLVFIVVGLAMAWMSSVFHFCLLVPGLVFSLCTLNVVTDSMLIKAVSTSDTGTMLGLCASVQPLLRTLGPTVGGLLYRSFGVPVFGHVQVAINTLVLLVLWRKPMPQRKDKVR [SLC22A18]
[1]; [5]
  thermal stability score: 0.106
[1]; cell cycle stage: mitosis
  thermal stability score: -0.446
[2]; cell cycle stage: G1/S
  melting temperature: 54.2 °C
[3]
  solubility change mitosis (log2): -0.181
[4]
  solubility in G1/S (log2): -0.019
